Test results: article PMC5667555

Target: ARTS-VN (UniProt O43236)
Assay: split reporter

Q: With “Bcl-2delBH3-VC (from UniProt P10415 1-239) (natural protein)” as the substance, how does the percent decrease of the BiFC signal compared to WT Bcl-2 read?
A: The percent decrease of the BiFC signal compared to WT Bcl-2 was 47%.
